Columns and labels:
Format in all cases: cell-based
[1] = target: T1, humanized FGFR3c/humanized betaKlotho (hβKlotho)-expressing cells (Homo sapiens, UniProt P22607+Q86Z14, A441S/A461E/A470D/A499P/A500N/A559S/A717S/A734V/A765M/C582S/D512S/D516E/D576E/D580N/D722E/D758Q/D785E/DEL405-414/E426D/E447G/E729D/E768D/F566Y/F579Y/F591S/F767L/G446S/G448T/G548D/G773S/G774F/H721N/I440P/I494L/I698V/I726M/INS417HSQMAVHKLAKSI/INS423TV/INS780T/K420R/K464R/K501R/K583H/L398M/L425A/L457Y/L554I/L645I/L752V/M488L/N428S/N434G/N453G/N644H/P401G/P402T/P436L/P502V/P584N/P778R/Q611K/Q775P/R397K/R399K/R416D/R498K/R568Q/S432N/S468P/S578C/S781C/T435V/T450M/T473V/T504K/T581P/T590S/T753A/T757N/V503T/V523I/V642I/V670I/V751I/V754L); assay: DNA synthesis in humanized FGFR3c/humanized betaKlotho-expressing BaF3 cells; conditions: humanized FGFR3c and humanized betaKlotho; 10 μg/ml heparin
T1 construct: expressed in transfected cells; host or cells: BaF3 (mouse pro-B) cells
T1 sequence (P22607 other isoform, or with tags, fused parts or gaps with the stated changes): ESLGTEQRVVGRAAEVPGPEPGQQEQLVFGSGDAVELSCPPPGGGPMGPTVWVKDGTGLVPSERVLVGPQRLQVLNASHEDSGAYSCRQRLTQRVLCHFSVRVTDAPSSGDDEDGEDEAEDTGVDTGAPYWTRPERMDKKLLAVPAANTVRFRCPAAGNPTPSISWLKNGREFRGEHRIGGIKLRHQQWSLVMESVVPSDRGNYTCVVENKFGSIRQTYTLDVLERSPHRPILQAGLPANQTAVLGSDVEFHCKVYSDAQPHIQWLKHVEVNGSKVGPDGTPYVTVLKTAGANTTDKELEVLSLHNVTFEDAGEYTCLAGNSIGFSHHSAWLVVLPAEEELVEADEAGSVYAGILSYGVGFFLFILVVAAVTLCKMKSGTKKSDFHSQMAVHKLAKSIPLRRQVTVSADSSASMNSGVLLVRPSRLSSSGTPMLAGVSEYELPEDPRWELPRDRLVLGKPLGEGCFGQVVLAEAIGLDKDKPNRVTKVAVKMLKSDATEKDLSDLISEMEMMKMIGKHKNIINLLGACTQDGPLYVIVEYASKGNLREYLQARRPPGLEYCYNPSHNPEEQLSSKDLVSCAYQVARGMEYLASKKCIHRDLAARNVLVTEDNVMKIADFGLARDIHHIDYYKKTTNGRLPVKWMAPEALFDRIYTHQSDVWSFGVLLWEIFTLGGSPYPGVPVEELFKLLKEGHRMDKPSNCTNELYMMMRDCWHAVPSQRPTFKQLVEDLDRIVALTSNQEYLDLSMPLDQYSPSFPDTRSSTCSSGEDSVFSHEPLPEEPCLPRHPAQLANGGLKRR
T1 sequence (Q86Z14 whole entry, stated change not applied): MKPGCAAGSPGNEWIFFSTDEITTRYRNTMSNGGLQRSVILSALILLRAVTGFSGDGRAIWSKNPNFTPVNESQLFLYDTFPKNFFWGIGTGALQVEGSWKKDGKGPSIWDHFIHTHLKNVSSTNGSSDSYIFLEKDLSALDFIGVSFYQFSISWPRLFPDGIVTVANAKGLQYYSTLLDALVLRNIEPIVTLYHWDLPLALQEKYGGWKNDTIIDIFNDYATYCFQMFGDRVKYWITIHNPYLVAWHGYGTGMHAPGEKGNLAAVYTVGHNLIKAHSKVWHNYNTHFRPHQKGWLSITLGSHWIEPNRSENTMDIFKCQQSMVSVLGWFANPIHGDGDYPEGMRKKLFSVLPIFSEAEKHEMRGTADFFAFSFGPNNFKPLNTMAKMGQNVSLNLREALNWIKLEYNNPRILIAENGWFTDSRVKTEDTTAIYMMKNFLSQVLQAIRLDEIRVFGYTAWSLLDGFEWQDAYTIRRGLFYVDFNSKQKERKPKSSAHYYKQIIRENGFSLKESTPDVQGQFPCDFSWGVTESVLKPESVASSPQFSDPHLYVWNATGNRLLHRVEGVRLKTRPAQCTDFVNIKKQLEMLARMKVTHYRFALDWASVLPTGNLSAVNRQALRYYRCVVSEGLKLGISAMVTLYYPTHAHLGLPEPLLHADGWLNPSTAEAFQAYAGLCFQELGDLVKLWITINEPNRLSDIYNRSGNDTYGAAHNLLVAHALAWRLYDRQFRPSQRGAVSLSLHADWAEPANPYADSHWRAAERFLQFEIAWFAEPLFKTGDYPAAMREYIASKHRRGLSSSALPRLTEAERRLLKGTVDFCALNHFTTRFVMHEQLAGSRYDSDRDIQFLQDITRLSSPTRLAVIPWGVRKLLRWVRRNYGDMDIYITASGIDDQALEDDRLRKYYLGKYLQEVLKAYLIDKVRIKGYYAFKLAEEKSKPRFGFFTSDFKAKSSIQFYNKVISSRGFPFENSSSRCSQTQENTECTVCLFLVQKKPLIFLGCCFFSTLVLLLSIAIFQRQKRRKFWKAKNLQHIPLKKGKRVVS
Experimental: The homology between human FGFR3 and mouse FGFR3 at the amino acid sequence level is 93%. […] The cDNA of humanized FGFR3c was prepared from a commercially available human RNA sample (Takara Bio Inc.) by PCR. The sequence of its intracellular portion was substituted with the sequence of humanized FGFR1, and it was then introduced into an expression vector having an SRalpha promoter (pSRalpha). The FGFR3c expression vector was introduced into BaF3 cells by an electroporation method, so as to obtain FGFR3c-expressing BaF3 cells as G418-resistant clones. In the case of FGFR3c/betaKlotho-co-expressing cells, a betaKlotho expression vector was introduced into the FGFR3c-expressing BaF3 cells, so as to obtain the aforementioned cells as Puromycin-resistant clones. In the presence of heparin, humanized FGF21 was added in various types of concentrations to FGFR3c-expressing cells or FGFR3c/betaKlotho-co-expressing cells, and the amount of DNA synthesized was then measured.

[2] = test system: undifferentiated 3T3-L1 fibroblasts; assay: GLUT1 mRNA expression in undifferentiated 3T3-L1 fibroblasts; conditions: various concentrations, 6 hours
Experimental: It has been reported that FGF21 allows adipocytes to increasingly express glucose transporter 1 (GLUT1). In the present example, as cultured adipocytes, there were used 3T3-L1 cells that are fibroblasts having the ability to differentiate into adipocytes by controlling culture conditions. The cells were cultured in a culture solution of a Dulbecco's modified Eagle medium (DMEM) containing 10% fetal bovine serum (FBS), so as to prepare cells maintaining an undifferentiated property as fibroblasts. The prepared cells were cultured in a test system, and they were allowed to grow to a confluent state. The cells were then left for 2 days. Thereafter, the culture solution was exchanged with DMEM as a culture solution used for differentiation induction, which comprised 10% FBS, 0.25 μM dexamethasone, 0.5 mM methyl isobutyl xanthine, and 5 μg/ml insulin. The cells were cultured for 2 days. […] The term “cells having the properties of adipocytes” is used herein to mean cells, which conduct intracellular metabolism specific to adipocytes and have cytoplasm in which large quantities of fat droplets are accumulated.
FGF21 were added in various types of concentrations to such different types of culture solutions, and the cells were further culture for 6 hours. Thereafter, RNA was extracted, and the copy number of GLUT1 was counted.

[3] = test system: 3T3-L1 fibroblasts forced to express betaKlotho; assay: Phosphorylation of FRS2 and MAPK in undifferentiated 3T3-L1 cells forced to express betaKlotho; conditions: betaKlotho expression vector; FGF21 1.1 μg/ml and 4.5 μg/ml; 10 minutes
Experimental: (§1) A betaKlotho expression vector produced by the method described in Example 4 and an empty vector used as a control, into which betaKlotho cDNA had not been inserted, were introduced into 3T3-L1 fibroblasts cultured as described in Example 1 by a lipofection method, thereby obtaining Puromycin-resistant clones. These different types of cells were stimulated with FGF21, and 10 minutes after the stimulation, a cell lysate was prepared. The activation of FRS2 and MAPK that were signaling molecules located downstream of FGFR was examined by a Western blotting method.

[4] = test system: undifferentiated 3T3-L1 cells that had not expressed betaKlotho; assay: Phosphorylation of FRS2 and MAPK in undifferentiated 3T3-L1 cells not expressing betaKlotho; conditions: 10 minutes
Experimental: as §1

| Molecule | amount of DNA synthesized (thymidine incorporation) [1] | expression level of GLUT1 mRNA [2] | phosphorylation levels of FRS2 and MAPK [3] | phosphorylated state of FRS2 and MAPK [4] |
| --- | --- | --- | --- | --- |
| FGF1: conventional FGF used as a control | promoted the DNA synthesis | – | – | – |
| FGF21: fibroblast growth factor 21; mouse-derived protein used in Examples 1-7 and 10-13 (protein) AYPIPDSSPLLQFGGQVRQRYLYTDDDQDTEAHLEIREDGTVVGAAHRSPESLLELKALKPGVIQILGVKASRFLCQQPDGALYGSPHFDPEACSFRELLLEDGYNVYQSEAHGLPLRLPQKDSPNQDATSWGPVRFLPMPGLLHEPQDQAGFLPPEPPDVGSSDPLSMVEPLQGRSPSYAS | – | hardly changed | increased | do not change |
